US20090324700A1, “METHODS AND COMPOSITIONS FOR THE INHIBITION OF CATHEPSINS” (priority 2003, published 2009)

Experiments:
human cathepsin L = biological target: T1, human cathepsin L (Homo sapiens, UniProt P07711); assay: Protease specificity of Spi2A: cathepsin L; type: biochemical; details: protease 20 nM, Spi2A 200 nM, 1 h at 37° C; FIG. 6B
T1 construct: purchased Calbiochem or Athens Research and Technology
Experimental: (§1) Protease specificity of Spi2A. RelA^−/− MEFs were transduced with retrovirus encoding Spi2A with a C-terminal 3×FLAG epitope tag and Spi2A-3×FLAG purified using a method described previously (Cooley et al., 1998). Briefly, cells (3×10^9) were lysed and Spi2A-3×FLAG (75 μg) purified by batch Q-Fast Flow ion-exchange chromatography (Pharmacia Biotech) after elution at 160-220 mM NaCl followed by anti-FLAG antibody columns, performed according to manufacturer's instructions (Sigma-Aldrich). Spi2A-3×FLAG was dialysed into PBS and stored as aliquots at −80° C. until needed.
(§2) Proteases were purchases from the manufacturers (Calbiochem or Athens Research and Technology) except granzymes A and B which were purified as described (Hanna et al., 1993) and cathespin V and K, which were purified as described (Bromme et al., 1999; Linnevers et al., 1997). Proteases (20 nM) were incubated in the appropriate assay buffer with Spi2A at 200 nM (at least 10-fold excess of inhibitor to maintain pseudo-first order conditions) for 1 h at 37° C. Control samples included only the enzyme, without the inhibitor. At the end of 1 h protease activity was assayed. […] Substrate hydrolysis was measured in a fluorescence microtiter plate reader (Spectramax Gemini XS, Molecular Devices). Percentage inhibition was calculated from the residual enzyme activity compared to no Spi2A controls. […]

human cathepsin K = biological target: T2, human cathepsin K (Homo sapiens, UniProt P43235); assay: Protease specificity of Spi2A: cathepsin K; type: biochemical; details: protease 20 nM, Spi2A 200 nM, 1 h at 37° C; FIG. 6B
T2 construct: made in house
T2 sequence (P43235 115-329): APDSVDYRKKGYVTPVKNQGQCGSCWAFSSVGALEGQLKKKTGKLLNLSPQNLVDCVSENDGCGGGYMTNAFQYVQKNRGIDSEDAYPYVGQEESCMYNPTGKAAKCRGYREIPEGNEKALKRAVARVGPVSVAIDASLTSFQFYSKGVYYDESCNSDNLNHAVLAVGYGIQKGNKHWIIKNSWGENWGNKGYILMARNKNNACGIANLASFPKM
Experimental: as §1, §2

RelA^−/− MEFs = assay: Mitochondrial membrane potential (JC-1), RelA^−/− MEFs; type: cell-based, mouse; details: TNF-α 0.2 ng/ml, CHX 0.1 μg/ml; FIG. 5C
Experimental: Death effector assays. Death effector pathways were induced in […] MEFs by treatment TNF-α (0.2 ng/ml) and CHX (0.1 μg/ml). Assays for executioner proteases (caspases and cathepsin B) were performed on crude cytoplasmic extracts (Stegh et al., 2000). Briefly, MEFs (10^6) were lysed in 10 mM Tris-Cl, pH 7.5, 100 mM NaCl, 1 mM EDTA, 0.01% Triton X-100 (50 μl) for 30 min on ice then centrifuged at 15,000 g for 30 min at 4° C. and the supernatant recovered. Protein concentration was determined by Lowry assay (DC-protein assay kit, Biorad). Western immunoblots were performed on crude cytosolic extracts (50 μg per lane) using standard protocols and probed with the following antibodies: goat anti-mouse Bid antiserum (1 μg/ml; R&D systems), rabbit anti-human caspase 9 antiserum (2 μg/ml; Cell Signaling Technology), rabbit anti-human caspase 3 antiserum (2 μg/ml; Cell Signaling Technology), mouse anti-human caspase 8 monoclonal antibody clone 12F5 (1 μg/ml; Axxora). […]
Mitochondrial membrane potential and ROS production were measured using the fluorescent dyes JC-1 (3 μg/ml) and dihydroethidium (HE) (5 μM)(Molecular Probes) respectively, and flow cytometry according to the manufacturer's instructions.

NIH3T3 cells = assay: Survival of NIH3T3 cells incubated with Naphazarin (ROS); type: cell-based; details: 16 hours; three clones vs GFP controls; FIG. 12B
Experimental: FIGS. 12A-B: Spi2A inhibits the lysosomal pathway of death in the absence of caspase activity. FIG. 12A: Cathepsin B activity in crude cytoplasmic extracts from cloned GFP or Spi2A-A NIH3T3 cells before (time=00 h) or after (time=8 h) treatment with TNF-α+Z-VAD.fmk (50 μM). FIG. 12B: Spi2A protects NIH3T3 cells from death due to reactive oxygen species. NIH3T3 fibroblasts from independent clones harboring control retrovirus (GFP clones #, 18, 12 and 2) or one expressing Spi2A (Spi2A clones# 6, 4 and 2) were incubated with Naphazarin—a known initiator of Reactive Oxygen Species (ROS). After 16 hours, the percentage of live cells was determined by flow cytometry as described in Liu et al. (2003).
Spi2A protects NIH3T3 cells from death due to reactive oxygen species. NIH3T3 fibroblasts from independent clones harboring control retrovirus (GFP clones #, 18, 12 and 2) or one expressing Spi2A (Spi2A clones# 6, 4 and 2) were incubated with Naphazarin—a known initiator of Reactive Oxygen Species (ROS). After 16 hours, the percentage of live cells was determined by flow cytometry as described in Liu et al., 2003.

[1] = test system: secondary anti-LCMV CD8 cells; details: mouse, in vivo
[2] = test system: CD8 cells and B lymphocytes in PBLs; assay: Generation of bone marrow chimeras transduced with retrovirus: engraftment of CD8 cells and B lymphocytes in PBLs; type: in vivo, mouse; details: 8 weeks after bone-marrow transfer, before infection; vs GFP mice

T1 sequence (P07711 114-333): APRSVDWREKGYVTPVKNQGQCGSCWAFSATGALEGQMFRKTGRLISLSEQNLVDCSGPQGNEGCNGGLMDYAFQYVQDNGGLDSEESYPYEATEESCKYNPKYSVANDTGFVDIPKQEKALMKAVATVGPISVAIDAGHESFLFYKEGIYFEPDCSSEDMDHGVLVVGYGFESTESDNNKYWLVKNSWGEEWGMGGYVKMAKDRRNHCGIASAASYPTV

B1: Spi2A: murine Spi2A polypeptide, SEQ ID NO:2; purified as C-terminal 3×FLAG protein or expressed from MIGR1 retrovirus in cells and bone-marrow chimeras (protein, listed as Mus musculus)
chain: MAGVSPAVFGCPDVTLGRNTAVREVQENVTSVDSLTLVSSNTDFAFSLYRKLVLKNPDENVVFSPFSICTALALLSLGAKSNTLKEILEGLKFNLTETPEPDIHQGFRYLLDLLSQPGNQVQISTGSALFIEKHLQILAEFKEKARALYQAEAFTADFQQPLKATKLINDYVSNHTQGKIKELISGLKESTLMVLVNYIYFKGKWKNPFDPNDTFKSEFYLDEKRSVIVSMMKTGYLTTPYFRDEELSCTVVELKYTGNASAMFILPDQGRMQQVEASLQPETLRKWKNSLKPRMIHELRLPKFSISTDYSLEHILPELGIREVFSTHADLSAITGTKDLRVSQVVHKAVLDVAEKGTEAAAATGMAGVGCCAVFDFLEIFFNRPFLMIISDTKAHIALFMAKVTNPERSTNFPNGEGASSQRLESKRLCFGDPLCLIGQ
modifications: C-terminal 3xFLAG tag
notes: purified as C-terminal 3×FLAG protein or expressed from MIGR1 retrovirus in cells and bone-marrow chimeras
Human cathepsin L
  Inhibition of protease by Spi2A (percentage inhibition): extended to all of the lysosomal, papain-like proteases that were examined
Human cathepsin K
  Inhibition of protease by Spi2A (percentage inhibition): extended to all of the lysosomal, papain-like proteases that were examined
RelA^−/− MEFs
  mitochondrial depolarization: virtually abrogated
NIH3T3 cells
  Survival (percentage of live cells) with Naphazarin: significantly increased survival
[1]
  Number of anti-LCMV CD8 cells per spleen GFP^−: 45.94 ± 7.55 (n = 4) ×10^−5
  Percentages and absolute numbers of secondary anti-LCMV CD8 cells (recall response): significantly increased
  proportional change of anti-LCMV CD8 cells compared to the GFP control: (417%)
[2]
  Percentage of CD8 cells in transduced (GFP-positive) PBLs: no difference
